This passage reports stoichiometry N results from article PMC6697640.

The target of this experiment is 3X N-terminal FLAG-tagged PTEN (phosphatase and tensin homolog), wild type (UniProt P60484). The experiment is described as follows: native gel or EMSA; co-IPs from total lysate of BT-549-PTEN cells followed by Western blot under non-denaturing conditions; dimers seen in the input lane and in the co-immunoprecipitate.

As to “3X N-terminal FLAG-tagged PTEN (phosphatase and tensin homolog), wild type, P60484 1-403 (enzyme; other documents disagree on this pair)”, the stoichiometry N worked out at 2.

In general, stoichiometry N refers to a count of units in the complex or per binding partner.
